Reference: paper PMC10113255, “PHF14 enhances DNA methylation of SMAD7 gene to promote TGF-β-driven lung adenocarcinoma metastasis”

Target: T1, PHF14 ePHD domain E430A K435A (Homo sapiens, UniProt O94880 382-499, E430A;K435A)
T1 sequence: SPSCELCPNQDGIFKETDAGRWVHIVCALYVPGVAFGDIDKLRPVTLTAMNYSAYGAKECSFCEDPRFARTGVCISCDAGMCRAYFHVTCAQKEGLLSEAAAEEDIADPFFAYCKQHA
Test: SPR; protein immobilized on CM5; SPR: HBS-P (10 mM HEPES pH 7.4, 150 mM NaCl, 0.05% P20), 25 °C, 1:1 Langmuir fit; EMSA: LightShift kit protocol, 0.5x TBE native PAGE, buffer not stated
Details: protein: recombinant; tags: His (EMSA, purification method); FLAG (SPR); label: biotin (EMSA); blunt

B1: CG-rich probe, unmethylated (dsDNA)
DNA 1: ACGGCTCGTCGCTACGGCTCGTCGCT
DNA 2: AGCGACGAGCCGTAGCGACGAGCCGT
B1 showed a Kd of 275 nM.
